# Measurements reported in the DeepSol protein solubility set.
# Assay: soluble on expression in E. coli; label from the status in PepcDB or PDB records
row,Sequence,soluble on expression in E. coli
1,MKIRYKFGVWMLCLMFPALVWAENAKSICTSFTQQGRQVTFHLADSAALQLQLCSPSVVRIWFSPDGKLQRRNASFAVINEELEDVGTVHVDEQAACYEIFTSKLRIRVNKSPMSIQIFDKYQKLLFSDYADKGHVSEGTKKVEYKTLRRDEHFFGLGEKTGKMDRRGESYKMWNSDKPCYSVVEDPLYKSIPFFMSSYRYGIFLDNTYKTEFKFGTESRDYYSFEAPDGEMIYYFIFGKDYKEILSQYVGLTGKPIMPPKWALGFAQCRGLLTSEKLSREIAEGYRTRGIPCDIIYQDIGWTEHLQDFEWRKGNYGHPKKMLADLKEMGFKVVVSQDPVISQANKKQWEEADRLGYFVKDSTNGKSYDMPWPWGGNCGVVDFTLPAVADWWGTYQQKPIDDGISGFWTDMGEPAWSNEEQTERLVMKHHLGMHDEIHNVYGLTWDKVVKEQFEKRNPNRRVFQMTRAAYAGLQRYTFGWTGDCGNGDDVLQGWGQLANQIPVILSAGLGVIPFTTCDITGYCGDIEDYHPFAELYTRWIQFGAFNPLSRIHHEGDNPVEPWLFGPEAEKNAKEAIELKYRLLPYIYTYAREAHDTGLPIMRPLFLEYPADMETFSTDGQFLFGQELLVAPVVKKGARTKNVYLPEGTWIDYNNKQTVYTGEQWTTVEAPLSCIPMFVKQGSIIPTMPVMNYTHEKPVYPLIFEVFPAPKGEEASFTLYEDEGEDLGYQRDEFAKTPVRFRTEEGGYLLSVGAREGKGYAVPAPRNFIFRMYLKTAPKGVTVQGKKVKKVKPERLEENPDDDTESMVWSWDKATGICSLRMPDRGEESRISLRL,not soluble
2,MKISMEGSSVINLEQLSLYQDSLGYLGQQMNFPEKMTFHPKIFEETISKSHPGYEDLLAYREVMMNYTLSEIKAIYTDTFDFSKKHPLYMTFNKFDTQKERGQMLAKLKVLYEMFGLKMVDNELSDFLPLMLQFLQVADFKNDSRAQENLQLVIMIIEDGTYEMANTLAENNNPYAYVVSALRKTLKACIVPLKEVENHA,not soluble
3,MKITHCKLKKKVQKELLRFFVLEVTARSAADILGIHPNSAVLFYRKIRTVINHHLALAADEVFEGPVEPDESDFGGRRKGRRGRGAAGKVVVFGILKRNGRGYTVVVDNAKSETLLPVIKKKIMPDSIVYTDSLSSCDKLDVSGFIHYRINHSKEFADRQNHINGIENFWNQAKRVLRKYNGIDRKSFPLFLKECEFRFNFGTPSQQLKILRDWCGILEHHHHHH,soluble
4,MKITIIGAGNIGSAVAACLAKGHLYNEKDIIISTPHTDKLENLHKQFPAIRIMTENQYAISEADIIILAVKPCIVDEVLSPLRFSRTQILVSLVTGISISHLAHLSETEMPIFRVVPNIAITEHSSLTLITSRKAGKEHQQLIKQTFEEGGKCLFAEEKQLDIISALTSSGIAFALKYIHAAMQAGIELGISAEDAMRMTAYSMEGATELILNHDTHPLLEIEKAATPGGATIKGLNELEHRGFTSAVIHAIKSSATVSTDKETEE,not soluble
5,MKITTWNVNSLNVRLPQVQNLLADNPPDILVLQELKLDQDKFPAAALQMMGWHCVWSGQKTYNGVAIVSRSVPQDVHFGLPALPDDPQRRVIAATVSGVRVINVYCVNGEALDSPKFKYKEQWFAALTEFVRDEMTRHGKLVLLGDFNIAPADADCYDPEKWHEKIHCSSVERQWFQNLLDLGLTDSLRQVHPEGAFYTWFDYRGAMFQRKLGLRIDHILVSPAMAAALKDVRVDLETRALERPSDHAPVTAEFDW,soluble
6,MKITYIHHSSFLVELEHVSMLFDYYAGQLPEIRKDRPLVVFASHFHGDHFAPVIFDLAKDREDVNYVLSKDISKKKVPDNLIGRVTFVKAGEKLALYTEGRKAGLEIETFKSTDEGVAFWITCEGSTIYHAGDLNNWWWEGEDKAWNHNMAANYAHEMEKMEGRTVDAAFVPLDPRLEQWFYLGMKEFMEKVDAKAVIPMHFWKDYSIIEKMRQHPSSEGWRERLVEIHREGEELAI,not soluble
7,MKKAAVSGRLYEVFDVFADKALAGNPLAIVHDCEGLTDACMQAIAREFNLSETVFIHAPANPAHEASVRIFTPAYELPFAGHPTVGAAVSLARRQKTGDETDRLVTLEEKVGIVRCGVILGENSAFAEFDLPRLPEQVDVKIEREEAAAAIGLGTHEIGFENHVPGVWSAGTPCLLVPVHNLIAAAKVSIDPVYVSESLPHVGGRPLPIYVYCRETILFNSHFHARMFVIGANVYEDPATGSAVAAFAGMIQQNDKPVDGSSQWWIEQGMEMGRPSRIRLELDVSKQKLVSARIGGTAVKIAEGRLFVLEHHHHHH,not soluble
8,MKKEIKFSLMYRDMWQSSGKYQPRKDQLERIAPVIVEMGCFARVETNGGAFEQVNLLYGENPNKAVRAFTKPLNEAGIQTHMLDRGLNGLRMFPVPADVRRLMYKVKKAQGVDITRIFDGLNDARNIIPSIKYALEAGMIPQATLCITFSPVHTVEYYSNLADELIAAGAPEICLKDMAGIGRPHFLGQLVKSIKTKHPDVIIEYHGHSGPGFSVASMLEVCENGADIIDVAMEPISWGKVHPDVITIQQMLKDAGFKVPEINMDAYMKARSLTQEFIDDFLGYFMDPSNKETSSLLVGCGLPGGMMGSMMADLKGVHAGINMFLKGKGEPEMTIDQLLVRLFQEVEYVWPRLGYPPLVTPFSQYVKNVALMNVYNMIRGEGRWQAIDQNTWGMILGKSGRLPGKLDPEIIALAKEKGMEFSDADPQQFYPDALDEFRKEMDQNGWEYGPDDEELFELAMHDRQYRDYKSGVAKERFNADLDKAKADRMAKQGYSDEDIKKAKRAGCDPIVAPCSGRLYWEIDTEEQSIAPAIGAEYRTGQPFCYIENQFGYIEKVYCTFTGRITEVVAQGTVVKKGDEIAYLRTAEKEIMWEGANEHIVRVETMPEPRKRITKSAQKN,not soluble
9,MKKEVTEISSYDATNLVFYVNGKRVEEKDVDPKMTLATYLRDKLKLTGTKIGCNEGGCGACTIMISHIENGEIKHFSANSCLMPVCGVFGKAVTTVEGIGSVAKNRLHPVQERLAKAHGSQCGFCTPGFVMAMYALLRNNPNPTISDINLGLQGNLCRCTGYRPILEAFYSFAVDESGTLKVTEENGCGMGENCCKVKKTACGGSDETTPGYTGGERKRKIQLSDMSDCKPYDPTQELIFPPELKLHGYESMSFAYDHHHTKWYQPVSYDDLLSLKRELPHARLISGNSELAIELKFRFIDLPAVINPRQVKVLHEKHLENDGVYMGTGMSLTDMDNYSVQLMKDLPREQTAVLKHVHEMLHWFAGIHVRNVASVAGNIATASPISDLNPIWMASNALVVLDSEARGEKRVHIDEKFFLGYRKTVIQQDEIIKAVIVPLLEENEHFAAYKQAQRREDDIAIVTGAFLVKLDPKTLVVEKIRISYGGMAPTTKLALTTMEKLIGEKWSQTFLDKALGLLSDELKLPAGVPGGMSQYRLSLALSFFFKFFLGVSKKLELTEIKYVDADVKIGQNVPETLYATQLYQEVKANQPAHDPLGRPIKHVSGDKHTTGEAVYCDDINVADCNHIAFVLSPIAHGTLNSIDYTAALEIDGVVGTIDASDVTTGAQMGHHSDTPVFVKETITFHGQPIAAIVATDHEIARKAASLVKLDYSVEKPIVTIKQALEAESFVFKHFVIHSSLNDNEQVIKSDWSKYDRIVEGSIDMGGQEHFYLETQQCIVIPHEDDELEIIISNQCVNDVQIEVAKCLGMAQHKISTKVKRIGGGFGGKESTGAILAVPASLAAKKFGRPMKFKFERFDDMAITGTRHPFTLQYKLAVDENGKFLDLDYTALSNSGHTIDLSMGVMQRAMVHADNVYKFENADITGKMCKTNLASNTAFRGFGGPQGMFGTEIMVKHVAEKFGFNHDEVRVKNFYKEGDCTPFGMHLNQCNVTRTWDECRKNSDYDNRLEEVKKFNDSNKFRKRGIYLTPTRFGIGFGLKQLNQAGALVLVYTDGSVLVSHGGMEMGQGLHTKILQIAARCLEIPIERIHIHDTSTDKVPNASATAASVGSDMNGLAVQDACRQINERLERFKKLDPNGTWDDWVKAAYVDRVSLSASGFGIIHHEPVDFFNGKGAELFGYSVYGTACCEVEIDCLTGDHHLLRTDIVMDVGESLNPAIDIGQIEGAFIQGYGLFTMEEIKIRPDGIRLTRGPGNYKIPSADDAPRHFNVSLLGNSSNKMGIFSSKAIGEPPLFLGSCAFFAIREAVRAYRIQNGNADYFVFHSPATPERIRMACEDFVTSHVPELPEEGTYTPWITSV,not soluble
10,MKKFALATIFALATTSAFAGFNGNNSQGGFQQAAPAAISVKQALSAADNSMITLVGNITQQIDDDEFWFTDGTGQIKIEIKKRVWNGLNVDSKDKVKIYGKLDNEVFEKAELDVLRIEKAE,not soluble
